target: TNFR1 on L929 cells (UniProt P25118); assay: cell-based or functional assay
Sequence of UniProt P25118 (P25118 30-454 limits assumed): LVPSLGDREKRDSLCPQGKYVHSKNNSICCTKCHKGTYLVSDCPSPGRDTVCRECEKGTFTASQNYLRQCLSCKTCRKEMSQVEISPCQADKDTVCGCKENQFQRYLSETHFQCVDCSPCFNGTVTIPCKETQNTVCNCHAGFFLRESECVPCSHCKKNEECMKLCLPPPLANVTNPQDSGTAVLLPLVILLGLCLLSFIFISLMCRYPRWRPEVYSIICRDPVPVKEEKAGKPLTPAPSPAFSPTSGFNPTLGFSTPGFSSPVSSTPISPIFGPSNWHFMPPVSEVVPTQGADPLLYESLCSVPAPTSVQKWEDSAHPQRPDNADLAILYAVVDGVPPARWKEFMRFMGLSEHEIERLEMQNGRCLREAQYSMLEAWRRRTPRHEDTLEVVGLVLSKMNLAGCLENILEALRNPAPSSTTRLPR

Row | Substance | EC50 of cytotoxic activity against L929 cells | loss of activity against unmodified scTNF-α (L929 cytotoxicity)
1 | randomly PEGylated scTNF-α (direct conjugation with PEG NHS ester) (ligand) | 0.0046 ng/mL | 10 fold
2 | unmodified single-chain TNF-α (scTNF-α), His tag cleaved (ligand) | 0.00035 ng/mL | 
3 | citraconylated scTNF-α (lysine side chains globally blocked with citraconic anhydride) (ligand) | 0.0076 ng/mL | 
4 | PRINT PEG20K scTNF-α (N-terminally PEGylated with PEG-20000) (ligand) | 0.00062 ng/mL | 
5 | PRINT PEG5K scTNF-α (N-terminally mono-PEGylated with PEG-5000) (ligand) | 0.00058 ng/mL | 

— patent publication US20200237923A1
